US20110130541A1

Substance: BY-kinase A1B2 from Staphylococcus aureus
- Radioactivity incorporated in CapO (cpm); 50 pmol A1B2, 50 pmole CapO, no BYK001, incubation 0.5 min (CapO): 3950 cpm
- Radioactivity incorporated in CapO (cpm); 50 pmol A1B2, 50 pmole CapO, no BYK001, incubation 1 min (CapO): 7040 cpm
- Radioactivity incorporated in CapO (cpm); 50 pmol A1B2, 50 pmole CapO, no BYK001, incubation 2 min (CapO): 17400 cpm
- Radioactivity incorporated in CapO (cpm); 50 pmol A1B2, 50 pmole CapO, no BYK001, incubation 5 min (CapO): 34700 cpm
- Radioactivity incorporated in A1B2 (cpm); 50 pmole BYK001, 50 pmole A1B2, incubation 0.5 min (BYK001): 29200 cpm
- Radioactivity incorporated in A1B2 (cpm); 50 pmole BYK001, 50 pmole A1B2, incubation 1 min (BYK001): 71700 cpm
- Radioactivity incorporated in A1B2 (cpm); 50 pmole BYK001, 50 pmole A1B2, incubation 2 min (BYK001): 133000 cpm
- Radioactivity incorporated in A1B2 (cpm); 50 pmole BYK001, 50 pmole A1B2, incubation 5 min (BYK001): 326000 cpm
- Radioactivity incorporated in A1B2 (cpm); 500 pmole BYK001, 50 pmole A1B2, incubation 0.5 min (BYK001): 30700 cpm
- Radioactivity incorporated in A1B2 (cpm); 500 pmole BYK001, 50 pmole A1B2, incubation 1 min (BYK001): 72500 cpm
- Radioactivity incorporated in A1B2 (cpm); 500 pmole BYK001, 50 pmole A1B2, incubation 2 min (BYK001): 134000 cpm
- Radioactivity incorporated in A1B2 (cpm); 500 pmole BYK001, 50 pmole A1B2, incubation 5 min (BYK001): 325000 cpm
- Radioactivity incorporated in A1B2 (cpm); 5000 pmole BYK001, 50 pmole A1B2, incubation 0.5 min (BYK001): 29900 cpm
- Radioactivity incorporated in A1B2 (cpm); 5000 pmole BYK001, 50 pmole A1B2, incubation 1 min (BYK001): 72500 cpm
- Radioactivity incorporated in A1B2 (cpm); 5000 pmole BYK001, 50 pmole A1B2, incubation 2 min (BYK001): 141000 cpm
- Radioactivity incorporated in A1B2 (cpm); 5000 pmole BYK001, 50 pmole A1B2, incubation 5 min (BYK001): 324000 cpm
- Radioactivity incorporated in CapO (cpm); 50 pmole BYK001, 50 pmol A1B2, 50 pmole CapO, incubation 0.5 min (BYK001): 3560 cpm
- Radioactivity incorporated in CapO (cpm); 50 pmole BYK001, 50 pmol A1B2, 50 pmole CapO, incubation 1 min (BYK001): 6390 cpm
- Radioactivity incorporated in CapO (cpm); 50 pmole BYK001, 50 pmol A1B2, 50 pmole CapO, incubation 2 min (BYK001): 15500 cpm
- Radioactivity incorporated in CapO (cpm); 50 pmole BYK001, 50 pmol A1B2, 50 pmole CapO, incubation 5 min (BYK001): 31900 cpm
- Radioactivity incorporated in CapO (cpm); 500 pmole BYK001, 50 pmol A1B2, 50 pmole CapO, incubation 0.5 min (BYK001): 3500 cpm
- Radioactivity incorporated in CapO (cpm); 500 pmole BYK001, 50 pmol A1B2, 50 pmole CapO, incubation 1 min (BYK001): 6300 cpm
- Radioactivity incorporated in CapO (cpm); 500 pmole BYK001, 50 pmol A1B2, 50 pmole CapO, incubation 2 min (BYK001): 15500 cpm
- Radioactivity incorporated in CapO (cpm); 500 pmole BYK001, 50 pmol A1B2, 50 pmole CapO, incubation 5 min (BYK001): 31300 cpm
- Radioactivity incorporated in CapO (cpm); 5000 pmole BYK001, 50 pmol A1B2, 50 pmole CapO, incubation 0.5 min (BYK001): 3510 cpm
- Radioactivity incorporated in CapO (cpm); 5000 pmole BYK001, 50 pmol A1B2, 50 pmole CapO, incubation 1 min (BYK001): 6320 cpm
- Radioactivity incorporated in CapO (cpm); 5000 pmole BYK001, 50 pmol A1B2, 50 pmole CapO, incubation 2 min (BYK001): 15500 cpm
- Radioactivity incorporated in CapO (cpm); 5000 pmole BYK001, 50 pmol A1B2, 50 pmole CapO, incubation 5 min (BYK001): 31000 cpm
